The data set concerns R4Al (R4_AL) retrotransposase (Ascaris lumbricoides). Nature of the data set: cell_activity. As to conditions: ddPCR 3' junction, HEK293T, plasmid cis.

As for human rDNA R4 target site, the activity (copies/genome) was 0.085.

For the origin of these results see US20200109398.
